# Measured values from PMC11685440.
# Target: 6xHis-MBP-PmARF1^DBD (Penium margaritaceum AB-class ARF1 DNA-binding domain) (Penium margaritaceum)
# Assay: SEC-MALS; 6xHis-MBP-PmARF1^DBD at 1 mg/ml in 1x PBS, Superdex 200 Increase 10/300 GL, room temperature
substance,measurement,value
6xHis-MBP-PmARF1^DBD (Penium margaritaceum AB-class ARF1 DNA-binding domain) (domain or fragment),stoichiometry N,2
